Test results reported in patent US20210228731A1 (Novartis, published 2021).
Changes are numbered by the printed parent chain.

T1: Rat cKIT D1-5, C-terminal mFc (rat)
T1 construct: also called rat cKIT-mFc
T1 chain: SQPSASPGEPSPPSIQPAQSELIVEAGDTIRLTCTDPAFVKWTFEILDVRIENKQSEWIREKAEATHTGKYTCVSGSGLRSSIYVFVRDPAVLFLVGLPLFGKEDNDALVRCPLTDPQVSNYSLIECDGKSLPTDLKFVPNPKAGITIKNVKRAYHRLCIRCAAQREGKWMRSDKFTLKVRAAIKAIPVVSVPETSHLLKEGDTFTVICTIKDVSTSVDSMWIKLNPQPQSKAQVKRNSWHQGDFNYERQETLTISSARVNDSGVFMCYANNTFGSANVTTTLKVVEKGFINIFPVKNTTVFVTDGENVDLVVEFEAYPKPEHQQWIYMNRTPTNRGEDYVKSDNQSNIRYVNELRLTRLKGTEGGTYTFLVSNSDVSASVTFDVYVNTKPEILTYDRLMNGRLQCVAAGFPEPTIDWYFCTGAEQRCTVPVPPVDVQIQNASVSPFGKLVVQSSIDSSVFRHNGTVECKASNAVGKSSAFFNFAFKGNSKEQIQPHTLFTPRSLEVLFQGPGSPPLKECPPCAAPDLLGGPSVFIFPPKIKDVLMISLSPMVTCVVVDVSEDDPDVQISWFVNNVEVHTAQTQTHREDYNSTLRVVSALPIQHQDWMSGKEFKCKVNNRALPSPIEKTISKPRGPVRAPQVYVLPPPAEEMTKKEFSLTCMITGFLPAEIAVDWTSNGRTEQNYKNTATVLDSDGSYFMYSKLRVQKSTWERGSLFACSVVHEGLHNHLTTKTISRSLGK

T2: Cynomolgus monkey cKIT D1-5 (cynomolgus monkey, UniProt P10721 26-524 (human entry))
T2 construct: also called cyno cKIT ECD
T2 chain: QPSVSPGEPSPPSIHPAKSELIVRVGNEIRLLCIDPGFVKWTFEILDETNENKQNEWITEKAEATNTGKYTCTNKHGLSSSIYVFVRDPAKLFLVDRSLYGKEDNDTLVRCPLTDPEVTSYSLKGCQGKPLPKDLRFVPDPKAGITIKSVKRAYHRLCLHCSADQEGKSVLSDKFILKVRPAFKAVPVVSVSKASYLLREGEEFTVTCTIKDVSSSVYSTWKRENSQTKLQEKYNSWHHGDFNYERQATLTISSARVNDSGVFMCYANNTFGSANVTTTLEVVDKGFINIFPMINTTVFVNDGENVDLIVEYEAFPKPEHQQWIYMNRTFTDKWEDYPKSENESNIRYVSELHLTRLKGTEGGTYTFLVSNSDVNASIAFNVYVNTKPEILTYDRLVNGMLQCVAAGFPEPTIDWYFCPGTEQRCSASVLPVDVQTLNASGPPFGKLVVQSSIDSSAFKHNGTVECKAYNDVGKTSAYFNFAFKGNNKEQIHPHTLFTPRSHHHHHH

T3: Mouse cKIT ECD, C-terminal 6x His (Sino Biological Inc, catalog number 50530-M08H) (mouse, UniProt P05532 25-527)
T3 construct: extracellular domain
T3 sequence: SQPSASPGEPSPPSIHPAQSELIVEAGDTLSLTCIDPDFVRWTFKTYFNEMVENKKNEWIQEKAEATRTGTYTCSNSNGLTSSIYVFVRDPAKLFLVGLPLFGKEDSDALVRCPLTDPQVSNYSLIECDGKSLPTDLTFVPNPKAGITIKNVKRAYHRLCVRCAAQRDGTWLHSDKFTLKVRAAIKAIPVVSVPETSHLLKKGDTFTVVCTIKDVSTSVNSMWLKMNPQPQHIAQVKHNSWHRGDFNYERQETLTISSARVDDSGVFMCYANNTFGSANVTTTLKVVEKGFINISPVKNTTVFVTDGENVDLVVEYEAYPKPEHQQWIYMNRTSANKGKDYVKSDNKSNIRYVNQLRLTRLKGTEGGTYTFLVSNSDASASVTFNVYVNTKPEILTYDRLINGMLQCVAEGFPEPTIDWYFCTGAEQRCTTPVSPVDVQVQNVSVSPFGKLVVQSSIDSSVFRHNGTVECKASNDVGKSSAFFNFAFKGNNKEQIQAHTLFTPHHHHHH

B1: Anti-cKIT Ab5 (antibody, human IgG1, lambda, V domains shown)
VH: QVQLVQSGAEVKKPGESLKISCKGSGYSFTNYWIAWVRQMPGKGLEWMGIIYPSNSYTLYSPSFQGQVTISADKSISTAYLQWSSLKASDTAMYYCARVPPGGSISYPAFDHWGQGTLVTVSS
VL: DIELTQPPSVSVSPGQTASITCSGDNIGSIYASWYQQKPGQAPVLVIYRDNKRPSGIPERFSGSNSGNTATLTISGTQAEDEADYYCSVTDMEQHSVFGGGTKLTVLG
notes: Full-length human IgG1, lambda light chain
B2: Anti-cKIT Ab1 (antibody, human IgG1, kappa, V domains shown)
VH: QVQLVQSGAEVKKPGSSVKVSCKASGGTFSSYAISWVRQAPGQGLEWMGVIFPAEGAPGYAQKFQGRVTITADESTSTAYMELSSLRSEDTAVYYCARGGYISDFDVWGQGTLVTVSS
VL: DIQMTQSPSSLSASVGDRVTITCRASQSISNYLAWYQQKPGKAPKLLIYDASSLQSGVPSRFSGSGSGTDFTLTISSLQPEDFATYYCQQYYYESITFGQGTKVEIKR
notes: Full-length human IgG1, kappa light chain
B3: Anti-cKIT Ab2 (antibody, human IgG1, kappa, V domains shown)
VH: QVQLVQSGAEVKKPGSSVKVSCKASGGTFSSHALSWVRQAPGQGLEWMGGIIPSFGTADYAQKFQGRVTITADESTSTAYMELSSLRSEDTAVYYCARGLYDFDYWGQGTLVTVSS
VL: B2 VL with S28D, N31Q, Y32D, T85V, E94L, S95P, I96S
notes: as for B2
B4: Anti-cKIT Ab3 (antibody, human IgG1, kappa, V domains shown)
VH: B2 VH with V50T, F52G, A54F, A57Q, G59R
VL: B2 VL
notes: as for B2
B5: Anti-cKIT Ab4 (antibody, human IgG1, lambda, V domains shown)
VH: QVQLQQSGPGLVKPSQTLSLTCAISGDSVSTNSAAWNWIRQSPSRGLEWLGRIYYRSQWLNDYAVSVKSRITINPDTSKNQFSLQLNSVTPEDTAVYYCARQLTYPYTVYHKALDVWGQGTLVTVSS
VL: DIELTQPPSVSVSPGQTASITCSGDNLGDQYVSWYQQKPGQAPVLVIYDDTDRPSGIPERFSGSNSGNTATLTISGTQAEDEADYYCQSTDSKSVVFGGGTKLTVLG
notes: as for B1

What was measured:
[1] = target: T1, Rat cKIT D1-5, C-terminal mFc; test: reactivity to rat cKIT (method not given; Example 4 describes SPR)
[2] = target: T2, Cynomolgus monkey cKIT D1-5; test: SET per the column head (Example 4 describes SPR, Biacore: antibody captured by anti-human Fc, cKIT ECD in solution)
[3] = target: T4, Human cKIT D1-5 (extracellular domain) (human, UniProt P10721 26-524); test: as above
T4 construct: also called human cKIT ECD; full-length cKIT ECD

[4] = target: T3, Mouse cKIT ECD, C-terminal 6x His (Sino …); test: reactivity to mouse cKIT (method not given; Example 4 describes SPR)

T4 sequence (P10721 other isoform, or with tags, fused parts or gaps): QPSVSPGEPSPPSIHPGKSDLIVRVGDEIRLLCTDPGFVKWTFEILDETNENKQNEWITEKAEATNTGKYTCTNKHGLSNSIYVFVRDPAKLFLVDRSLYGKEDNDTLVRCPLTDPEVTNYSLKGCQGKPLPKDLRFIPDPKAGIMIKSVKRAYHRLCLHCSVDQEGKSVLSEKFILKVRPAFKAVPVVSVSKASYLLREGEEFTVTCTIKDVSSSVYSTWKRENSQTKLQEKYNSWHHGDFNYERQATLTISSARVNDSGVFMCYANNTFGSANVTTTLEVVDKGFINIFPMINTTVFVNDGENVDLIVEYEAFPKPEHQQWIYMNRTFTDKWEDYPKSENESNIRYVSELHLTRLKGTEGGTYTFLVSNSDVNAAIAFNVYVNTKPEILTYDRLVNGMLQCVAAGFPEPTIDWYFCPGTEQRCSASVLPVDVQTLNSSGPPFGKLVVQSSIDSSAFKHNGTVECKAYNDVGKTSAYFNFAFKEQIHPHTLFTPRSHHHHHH

Binder | binding result [1] | Kd [2] | Kd [3] | binding result [4]
B1 | binds | 0.18 nM | 0.11 nM | 
B2 | no binding | 0.17 nM | 0.094 nM | no binding
B3 | no binding | 0.01 nM | 0.007 nM | no binding
B4 | no binding | 0.052 nM |  | no binding
B5 | binds | 0.14 nM | 2.4 nM | 
